Results on two proteins are retold here after PMC4445970 (Nature structural & molecular biology, 2015).

This series deals with the molecule itself. Briefly: cryo-EM structure.

B1: pyocin R2 tube protein (natural protein)
chain: MIPQTLTNTNLFIDGVSFAGDVPSLTLPKLAVKTEQYRAGGMDAPVSIDMGLEAMEAKFSTNGARREALNFFGLADQSAFNGVFRGSFKGQKGASVPVVATLRGLLKEVDPGDWKAGEKAEFKYAVAVSYYKLEVDGREVYEIDPVNGVRAINGVDQLAGMRNDLGL
As a reminder, the stoichiometry N is the number of molecules, sites or subunits per partner or assembly. As to B1, the “stoichiometry N” value was 6.

B2: pyocin R2 sheath protein (natural protein)
chain: MSFFHGVTVTNVDIGARTIALPASSVIGLCDVFTPGAQASAKPNVPVLLTSKKDAAAAFGIGSSIYLACEAIYNRAQAVIVAVGVETAETPEAQASAVIGGISAAGERTGLQALLDGKSRFNAQPRLLVAPGHSAQQAVATAMDGLAEKLRAIAILDGPNSTDEAAVAYAKNFGSKRLFMVDPGVQVWDSATNAARNAPASAYAAGLFAWTDAEYGFWSSPSNKEIKGVTGTSRPVEFLDGDETCRANLLNNANIATIIRDDGYRLWGNRTLSSDSKWAFVTRVRTMDLVMDAILAGHKWAVDRGITKTYVKDVTEGLRAFMRDLKNQGAVINFEVYADPDLNSASQLAQGKVYWNIRFTDVPPAENPNFRVEVTDQWLTEVLDVA
With B2, the binding result was “binds”.
